Broadly, the Km is the substrate concentration at which the rate is half of its maximum. The kcat is the number of substrate molecules converted per active site and unit of time at saturation.

Here are results for one molecule from patent publication US20090181444A1, “MODIFIED CARBOHYDRATE PROCESSING ENZYME” (priority 2002, published 2009).

What all share (type): biochemical
The nature of series [1]: Hydrolysis of 4-methylumbelliferyl-β-D-glucoside, initial rates. The conditions noted are these: 4-MUGlc, 80° C., pH 6.5. Here is the method: (§1) Parameters were determined by the method of initial rates. Activity was measured in time course assays of the hydrolysis of 4-methylumbelliferyl-β-D-glycosides (β-D-gluco, β-D-galacto, β-D-fuco, β-D-manno, β-D-xylo, β-D-glucurono) at 5-15 concentrations (0.001-1.5 mM) incubated at 80° C. in 50 mM sodium phosphate buffer, pH 6.5. Reactions were terminated at 2, 5, 10, 15 min by the addition of 100 μl of ice cold 1M NazCO3, pH 10 and analyzed (Labsystems Fluoroscan Ascent plate reader, […]). KM and kcat were derived by fitting the initial rates to hyperbolic Michaelis-Menten curves using GraFit 4 (Erithacus Software Ltd, Staines, UK).
(§2) Determination of the Michaelis-Menten parameters for the WT and mutant enzymes was performed at pH 6.5 at 80° C. for a broad range of representative, fluorophore-containing 4-methylumbelliferyl glycoside substrates, which allowed activities to be determined with a high degree of sensitivity (Table). Under these optimized assay conditions, the glucoside (Glc), galactoside (Gal) and fucoside (Fuc) substrates were hydrolysed well by SSβG-WT, but the xyloside (Xyl) substrate was hydrolysed relatively poorly (approx. 3% of turnover as determined by kcat compared with β-D-glucoside). […] In all cases the absolute D-stereospecificity and β-stereoselectivity of SSβG was maintained and no activity was detected towards L- or α-glycoside substrates.

Series [2] is described as follows: Hydrolysis of 4-methylumbelliferyl-β-D-galactoside, initial rates. The conditions noted are these: 4-MUGal, 80° C., pH 6.5. On the procedure:
as §1, §2

Series [3] can be described thus: Hydrolysis of 4-methylumbelliferyl-β-D-xyloside, initial rates. The conditions noted are these: 80° C., pH 6.5. On the procedure: as §1, §2
Series [4] in a line: Hydrolysis of 4-methylumbelliferyl-β-D-glucuronide, initial rates. The conditions noted are these: 80° C., pH 6.5. Here is the method: as §1, §2
Series [5] can be described thus: Kinetic assay with p-nitrophenyl β-D-galactopyranoside, absorbance at 405 nm. The conditions noted are these: pNPGal. On the procedure:
(§3) The kinetic activity of SsδG was assessed using ultra-violet/visible spectroscopy. Cleavage of the glycosidic bond of the nitrophenyl sugar analogue releases a chromophore (Scheme 18), either p-nitrophenol or o-nitrophenol.
(§4) The absorbance of these chromophores at 405 nm was continuously measured at regular time intervals, and the Beer-Lambert Law used to calculate the chromophore concentration at each of these time intervals.
(§5) In order to use this equation the extinction coefficient, ∈, of both p-nitrophenol and o-nitrophenol were calculated. Enzyme kinetic parameters were assessed using the initial rates method. The gradient of a plot of chromophore concentration against time gave the initial rate of reaction at a series of substrate concentrations (0.05-10 mM). Kinetic parameters were calculated by regression analysis of the kinetic data on the Michaelis-Menten Model (Fersht, A., Enzyme Structure and Mechanism, W.H. Freeman and Company, New York (1985)). The initial rate of reaction was measured. This model is valid when [substrate]>>[enzyme], which are initial rate conditions.
(§6) KM and νmax were calculated from non-linear Michaelis-Menten and linear Lineweaver-Burk plots. From these values, kcat and kcat/KM were calculated and compared.
KM=νmax/2, it is the concentration of substrate at which half the active sites are filled. Higher KM values correspond to weaker binding and lower KM values correspond to stronger binding kcat, the turnover number is the number of substrate molecules which are converted to product when the enzyme is saturated with substrate and ν (rate) is maximised. Given both of these considerations, binding and rate, kcat/KM is typically as a measure of the overall relative activity of the enzyme. To allow comparison of the activity of the enzymes, ln({kcat/KM}mutant/{kcat/KM}WT) was calculated for each enzyme-substrate combination, to give overall activity relative to WT.
Substrate solutions (concentration 10 mM in 50 mM pH 6.5 phosphate buffer) were prepared. Kinetic assays were conducted in a 96-well flat bottom microtitre plate. Eight substrate concentrations were chosen for the assay from the range 0.05 mM to 10 mM (prepared from 10 mM stock solution), based on previous experimental experience of the kinetics of each enzyme (default range 0.05 mM to 2.00 mM)*. The enzyme stock solution (˜1 mgmL^−1) was diluted between 16- and 80-fold depending on the kinetic parameters determined*. The enzyme solution (496 µL) was dispensed into a 1.5 mL sealed Eppendorf tube. Into eight further Eppendorf tubes a portion of each substrate solution (650 μL) was dispensed. The tubes were incubated in a Techni Dri Block at 45° C. Simultaneously a 96-well flat bottom microtitre plate was incubated at 45° C. in a plate reader. […] The plate containing the enzyme and substrate solutions was then incubated in the plate reader at 45° C. to allow equilibration. […] Release of p-nitrophenol/o-nitropbenol was measured by absorbance at […], with an automix of 3 s before the first read and Is between every subsequent read. The run time chosen was between 6 min and 10 min*, and readings were taken at intervals of between 6 s and 10 s*.
(§7) A graph of concentration of the released chromophore (either pNP or oNP) against time was drawn for each concentration using Microsoft Excel. […] These gradients were entered into Grafit, which calculated KM and νmax from the Michelis-Menten and Lineweaver-Burk plots. From these kcat and kcat/KM could be calculated. […]

The nature of series [6]: Kinetic assay with o-nitrophenyl β-D-galactopyranoside-6-phosphate, absorbance at 405 nm. The conditions noted are these: oNPGalP6, 45° C., pH 6.5 phosphate buffer; averaged over 3 runs, except * 2 runs. On the procedure:
as §3, §4, §5, §6
KM=νmax/2, it is the concentration of substrate at which half the active sites are filled. Higher KM values correspond to weaker binding and lower KM values correspond to stronger binding kcat, the turnover number is the number of substrate molecules which are converted to product when the enzyme is saturated with substrate and ν (rate) is maximised. […] To allow comparison of the activity of the enzymes, ln({kcat/KM}mutant/{kcat/KM}WT) was calculated for each enzyme-substrate combination, to give overall activity relative to WT.
Substrate solutions (concentration 10 mM in 50 mM pH 6.5 phosphate buffer) were prepared. […] The enzyme stock solution (˜1 mgmL^−1) was diluted between 16- and 80-fold depending on the kinetic parameters determined*. […] Simultaneously a 96-well flat bottom microtitre plate was incubated at 45° C. in a plate reader. […] The plate containing the enzyme and substrate solutions was then incubated in the plate reader at 45° C. to allow equilibration. […] Release of p-nitrophenol/o-nitropbenol was measured by absorbance at […], with an automix of 3 s before the first read and Is between every subsequent read. The run time chosen was between 6 min and 10 min*, and readings were taken at intervals of between 6 s and 10 s*.
as §7

Series [7] can be described thus: Substrate specificity compared across 4-methylumbelliferyl-β-D-glycosides. Here is the method: as §1, §2

B1: WT: Wild type β-glycosidase from Sulfolobus solfataricus (SEQ ID NO: 2), recombinant with N-terminal His6-tag (protein, listed as Sulfolobus solfataricus)
chain: MYSFPNSFRFGWSQAGFQSEMGTPGSEDPNTDWYKWVHDPENMAAGLVSGDLPENGPGYWGNYKTFHDNAQKMGLKIARLNVEWSRIFPNPLPRPQNFDESKQDVTEVEINENELKRLDEYANKDALNHYREIFKDLKSRGLYFILNMYHWPLPLWLHDPIRVRRGDFTGPSGWLSTRTVYEFARFSAYIAWKFDDLVDEYSTMNEPNVVGGLGYVGVKSGFPPGYLSFELSRRHMYNIIQAHARAYDGIKSVSKKPVGIIYANSSFQPLTDKDMEAVEMAENDNRWWFFDAIIRGEITRGNEKIVRDDLKGRLDWIGVNYYTRTVVKRTEKGYVSLGGYGHGCERNSVSLAGLPTSDFGWEFFPEGLYDVLTKYWNRYHLYMYVTENGIADDADYQRPYYLVSHVYQVHRAINSGADVRGYLHWSLADNYEWASGFSMRFGLLKVDYNTKRLYWRPSALVYREIATNGAITDEIEHLNSVPPVKPLRH
modifications: N-terminal His6 tag
As to B1, the Km in series [1] came out at 46 ± 17 µM; in series [2] it was 66 ± 17 µM; in series [3] (4-MUXyl), 130 ± 30 µM; in series [4] (4-MUGlcA, read-out: Km), 1.3 ± 0.4 mM; in series [5] (45° C., pH 6.5 phosphate buffer, averaged over 3 runs, except * 2 runs, read-out: KM), 459 µM; in series [5] (read-out: average KM) it was 459 µM. The Km in series [6] was determined as 2.09 mM. For the same molecule, the kcat in series [1] was 140 ± 20 s⁻¹; in series [2] it was 98 ± 7 s⁻¹; in series [3] (4-MUXyl), 3.8 ± 0.3 s⁻¹; in series [4] (4-MUGlcA), 0.81 ± 0.18 s⁻¹; in series [5] (45° C., pH 6.5 phosphate buffer, averaged over 3 runs, except * 2 runs), 5.07 s⁻¹; in series [6] it was 5.52 s⁻¹. The “turnover (kcat) towards xyloside compared with β-D-glucoside” value in series [3] is reported as “approx. 3%”. Moreover, the “β-D-glucuronide activity, turnover relative to β-D-glucoside” value in series [4] was roughly 0.5%. In addition, the “specificity range of kcat/KM for Glc:Gal:Xyl:Man” value in series [7] is 100 fold.
